Patent US20250257126A1 (CAMBRIDGE ENTERPRISE, published 2025)
Numbering of substitutions follows the chain as printed. One block for each binder: values may come before it.

Key:
[1] = target: T1, RAD-displayed Fragment 1A of human LGR5 (human); assay: bio-layer interferometry (Octet), captured RAD-displayed fragment
T1 construct: also called Frag1A
T1 sequence (O75473 22-37, looked up): GSSPRSGVLLRGCPTH

human LGR4 transgene = target: T2, human LGR4 transgene (human, UniProt Q9BXB1 25-951); assay: western blot of lysates of HEK293T cells expressing the LGR transgenes
T2 construct: whole, on cells; Overexpressed in HEK293T cells with N-terminal HA tag, V2 receptor tail and eGFP; also tested as lysate; also called hLGR4; LGR4-eGFP

human LGR6 transgene = target: T3, human LGR6 transgene (human, UniProt Q9HBX8 25-967); assay: as above
T3 construct: whole, on cells; Overexpressed in HEK293T cells with N-terminal HA tag, V2 receptor tail and eGFP; also tested as lysate; also called hLGR6; LGR6-eGFP
T3 sequence (looked up): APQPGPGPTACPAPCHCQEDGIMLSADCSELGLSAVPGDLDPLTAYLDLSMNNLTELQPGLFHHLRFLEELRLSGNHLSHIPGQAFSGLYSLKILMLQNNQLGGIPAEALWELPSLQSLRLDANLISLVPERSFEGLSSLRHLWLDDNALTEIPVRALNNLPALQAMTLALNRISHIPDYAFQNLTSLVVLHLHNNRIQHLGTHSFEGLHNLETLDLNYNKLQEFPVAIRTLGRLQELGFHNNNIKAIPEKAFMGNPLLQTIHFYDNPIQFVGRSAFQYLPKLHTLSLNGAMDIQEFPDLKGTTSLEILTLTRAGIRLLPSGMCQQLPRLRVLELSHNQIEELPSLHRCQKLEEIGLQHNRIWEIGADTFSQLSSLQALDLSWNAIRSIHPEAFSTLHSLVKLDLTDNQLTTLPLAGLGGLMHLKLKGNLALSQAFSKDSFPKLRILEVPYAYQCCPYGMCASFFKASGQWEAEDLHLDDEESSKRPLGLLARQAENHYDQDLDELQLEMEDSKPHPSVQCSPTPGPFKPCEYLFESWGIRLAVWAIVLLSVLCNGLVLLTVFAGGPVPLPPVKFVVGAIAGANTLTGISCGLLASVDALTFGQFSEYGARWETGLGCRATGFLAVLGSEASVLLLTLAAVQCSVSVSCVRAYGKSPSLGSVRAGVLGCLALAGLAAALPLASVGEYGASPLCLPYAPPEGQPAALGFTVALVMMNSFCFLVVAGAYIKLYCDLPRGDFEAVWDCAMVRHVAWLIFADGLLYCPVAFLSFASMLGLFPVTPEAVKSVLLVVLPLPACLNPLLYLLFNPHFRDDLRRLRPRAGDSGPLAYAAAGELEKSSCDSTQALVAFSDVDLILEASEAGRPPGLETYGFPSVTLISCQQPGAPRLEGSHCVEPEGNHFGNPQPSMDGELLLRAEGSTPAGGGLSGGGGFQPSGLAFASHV

murine LGR4 transgene = target: T4, murine LGR4 transgene (mouse, UniProt A2ARI4 25-951); assay: as above
T4 construct: whole, on cells; Overexpressed in HEK293T cells with N-terminal HA tag, V2 receptor tail and eGFP; also tested as lysate; also called mLGR4

murine LGR6 transgene = target: T5, murine LGR6 transgene (mouse, UniProt Q3UVD5 23-967); assay: as above
T5 construct: whole, on cells; also called mLGR6
T5 sequence (looked up): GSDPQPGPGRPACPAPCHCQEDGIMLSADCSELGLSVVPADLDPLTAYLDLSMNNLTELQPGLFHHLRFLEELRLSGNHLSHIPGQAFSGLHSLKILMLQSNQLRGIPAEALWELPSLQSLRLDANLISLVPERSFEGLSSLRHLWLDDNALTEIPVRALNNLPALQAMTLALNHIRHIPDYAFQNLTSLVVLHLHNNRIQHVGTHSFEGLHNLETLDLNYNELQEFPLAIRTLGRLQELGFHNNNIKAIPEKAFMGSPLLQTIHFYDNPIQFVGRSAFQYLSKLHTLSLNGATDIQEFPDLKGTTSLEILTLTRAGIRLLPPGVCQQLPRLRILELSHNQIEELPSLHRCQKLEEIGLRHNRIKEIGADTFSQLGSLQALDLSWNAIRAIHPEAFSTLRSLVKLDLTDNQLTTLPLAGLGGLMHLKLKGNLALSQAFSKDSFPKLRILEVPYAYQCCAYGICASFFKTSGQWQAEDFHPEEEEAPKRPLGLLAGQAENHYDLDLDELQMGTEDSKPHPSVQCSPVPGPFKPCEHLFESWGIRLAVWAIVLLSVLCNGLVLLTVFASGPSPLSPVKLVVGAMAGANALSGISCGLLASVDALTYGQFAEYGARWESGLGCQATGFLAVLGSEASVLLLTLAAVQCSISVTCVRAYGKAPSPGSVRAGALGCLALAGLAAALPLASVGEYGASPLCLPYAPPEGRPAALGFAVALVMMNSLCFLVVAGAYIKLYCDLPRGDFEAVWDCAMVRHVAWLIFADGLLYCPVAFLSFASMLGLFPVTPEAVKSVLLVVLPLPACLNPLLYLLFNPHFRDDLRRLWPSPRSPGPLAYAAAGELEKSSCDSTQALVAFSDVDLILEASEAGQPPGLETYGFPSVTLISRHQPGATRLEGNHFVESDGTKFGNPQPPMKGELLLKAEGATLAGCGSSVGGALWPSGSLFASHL

[2] = target: T1, RAD-displayed Fragment 1A of human LGR5; assay: bio-layer interferometry (Octet), captured RAD-displayed fragment, 10 µM Fragment 1 peptide included

Kd [1]: 2 nM
B1: α-LGR5 variant 4 (antibody, human IgG1, kappa, V domains shown)
VH: QVQLVQSGAEVKKPGASVKVSCKASGYTFTNYWMQWVRQAPGQGLEWIGEIDPSDSYTNYNQKFQGRVTLTVDTSTSTAYMELSSLRSEDTAVYYCARSLSGYVDYWGQGTTVTVSS
VL: EIVMTQSPATLSLSPGERATLSCRASQDISNRLNWYQQKPGQAVRLLISYRSRRHTGIPARFSGSGSGTDYTLTISSLEPEDFAVYYCQQGNSLPPTFGGGTKLEIKR
notes: Humanized antibody; also called α-LGR5v4; clone 2.4

binding result (human LGR4 transgene): no binding
binding result (human LGR6 transgene): no binding
binding result (murine LGR4 transgene): no binding
binding result (murine LGR6 transgene): no binding
B2: hybridoma clone 12 (antibody, V domains shown)
VH: EVQLQQSGPELVKPGASVKISCKASGYTFTDYYMNWVKQSHGKSLEWIGDINPNNGGTIYNQKFKGKATLTVDKSSSTAYMELRSLTSEDSAVYYCASGYLFDYWGPGTTLTVSS
VL: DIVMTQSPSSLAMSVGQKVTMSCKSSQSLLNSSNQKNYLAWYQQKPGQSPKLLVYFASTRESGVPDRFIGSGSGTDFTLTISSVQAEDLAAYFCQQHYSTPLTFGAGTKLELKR
notes: Murine antibody; also called antibody 12

binding result (human LGR4 transgene): no binding
binding result (human LGR6 transgene): no binding
binding result (murine LGR4 transgene): no binding
binding result (murine LGR6 transgene): no binding
Kd [2]: 0.76 nM
B3: α-LGR5 clone 1 (antibody, mouse IgG1, kappa, V domains shown)
VH: QVQLQQPGAELVKPGASVKLSCKASGYTFTSYWMQWVKQRPGQGLEWIGEIDPSDYYTNYNQKFKGKATLTVDTSSSTAYMQLSSLTSEDSAVYYCARSLSGYVDYWGQGTTLTVSS
VL: DIQMTQSTSSLSASLGDRVTINCRASQDIRNRLNWYQQKPDGTVKLLISYRSRLQSGVPSRFSGSGSGTEYSLTISNLEQEDIATYFCQQGNTLPPTFGGGTKLEVRR
notes: Murine monoclonal antibody from hybridoma; also called hybridoma clone 1; antibody 1

binding result (human LGR4 transgene): no binding
binding result (human LGR6 transgene): no binding
binding result (murine LGR4 transgene): no binding
binding result (murine LGR6 transgene): no binding
Kd [2]: 1.4 nM
B4: α-LGR5 clone 4 (antibody, mouse IgG2b, kappa, V domains shown)
VH: B3 VH with S31D, Y56S, K65Q, M81I, E89D, Y103S
VL: B3 VL with S7T, N22S, R30S, E70D, S76T
notes: Murine monoclonal antibody from hybridoma; also called hybridoma clone 4; antibody 4

binding result (human LGR4 transgene): no binding
binding result (human LGR6 transgene): no binding
binding result (murine LGR4 transgene): no binding
binding result (murine LGR6 transgene): no binding
Kd [2]: 1 nM
B5: α-LGR5 clone 3 (antibody, mouse IgG1, kappa, V domains shown)
VH: B3 VH with Y56S, T58S
VL: B3 VL with S7T, N22S, R30S, E70D, Q80E
notes: Murine monoclonal antibody from hybridoma; also called hybridoma clone 3; antibody 3
